{"source": "paper PMC13344147", "about": "(Structure (London, England : 1993), 2025)", "proteins": {"B1": {"name": "human CPEB3 residues 1-217 (prion-like domain 1 construct) (domain or fragment, UniProt Q8NE35 1-217, looked up)", "chain": "MQDDLLMDKSKTQPQPQQQQRQQQQPQPESSVSEAPSTPLSSETPKPEENSAVPALSPAAAPPAPNGPDKMQMESPLLPGLSFHQPPQQPPPPQEPAAPGASLSPSFGSTWSTGTTNAVEDSFFQGITPVNGTMLFQNFPHHVNPVFGGTFSPQIGLAQTQHHQQPPPPAPAPQPAQPAQPPQAQPPQQRRSPASPSQAPYAQRSAAAAYGHQPIMT"}}, "target": "the molecule itself", "experiment": "cryo-EM structure"}
{"protein": "B1", "values": [{"measurement": "binding result", "value": "binds"}]}
